# Data: the nanobody polyreactivity screen of Harvey et al. (2022)
# Assay: yeast display, Sf9 membrane polyspecificity reagent, FACS + sequencing; frameworks hold sequencing errors
# Outline: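 Nanobodies from a synthetic yeast display library (Saccharomyces cerevisiae BJ5465), induced 36–48 hours with galactose, were stained 1 hour at 4 °C with 10% biotinylated, detergent-solubilized Sf9 membrane reagent, enriched on streptavidin microbeads, then FACS-sorted. Anti-HA (expression) and streptavidin (reagent binding) fluorescence set low and high (top ~1%) gates. Polyreactivity labels come from the gate of origin. Genes were colony-PCR amplified, MiSeq 2 × 250 sequenced and filtered by CDR length.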
row,Sequence,polyreactivity (PSR sort gate)
1,QVQLVESGGGLVQAGGSLRLSCAASGRIFSRYAMGWYRQAPGKERELVAIISSGDSTNYADSVKGRFTISRDNAKNTVYLQMNSLKPEDTAVYYCAAANWGTPPYDDWGQGTQVTVSS,low polyreactivity
2,QVQLVESGGGLVQAGGSLRLSCAASGRIFSSNVMGWYRQAPGKERELVAAITVTGGSTYYAYSVKGRFTISRDNAKYTVYLLMNSLNPEDTAVYFCAARVKGRFPYDYWGQGSQVTVSS,low polyreactivity
3,QVQLVESGGGLVQAGGSLRLSCAASGRIFSSYAMGWYRQAPGKEREFVASITWRGGSTYYADSVKGRFTISRDNAKNTVYLQMNSLKPEDTAVYYCAADFYWKTYGYRTHEYDYWGQGTQVTVSS,high polyreactivity
4,QVQLVESGGGLVQAGGSLRLSCAASGRIFSSYAMGWYRQAPGKERELVADITGRYGSTYYADSVKGRFTISRDNAKNTVYLQMNSLKPEDTAVYYCAASRFYFPRTFGGYPKLASYAYWGQVTQVTVSS,low polyreactivity
5,QVQLVESGGGLVQAGGSLRLSCAASGRIFSSYAMGWYRQEPGKERELVAAISRSGARTYYADSVKGRFTISRDNAKNTVYLQMNSLKPEDTAVYYCAAVTVAGYDYWGQGTQVTVSS,high polyreactivity
6,QVQLVESGGGLVQAGGSLRLSCAASGRIFSTYALGWYRQAPGKERELVAAISYSGASTYYADSVKGRFTISRDNAKNTVYLQIKSMKPEDTAVYYCAKATYPHEYDYWGQGTQVTVSS,low polyreactivity
7,QVQLVESGGGLVQAGGSLRLSCAASGRIFSTYAMGWYRQAPGKERELVAAISWRGGNTYYADSVKGRFTISRDNAKNTVYLQMNSLKPEDTAVFYCAAASFAYPYRNSALDYWGQGTQVTVSS,high polyreactivity
8,QVQLVESGGGLVQAGGSLRLSCAASGRIFSTYAMGWYRQAPGKERELVAAISYSGTTTYYADSVKGRFTISRDNAKNTVYLQMNSLKPEDTAVYYCAAYRYSTWSYGRDYYWGQGTQVTVSS,high polyreactivity
9,QVQLVESGGGLVQAGGSLRLSCAASGRIFSTYTMGWYRQAPGKERELVASISWSGVRTRYADSVKGRFTISRDNAQNTVYLQMNSLKPEDTAVYYCAAVVPYYYRSPSNHMGYWGQGTQVTVSS,high polyreactivity
10,QVQLVESGGGLVQAGGSLRLSCAASGRIFSTYVMGWYRQAPGKERELVAAIRNRGGSTYYADSVKGRFTISRDNAKNTVYLQMNSLKPEDTAVYYCAAEYSYRYRVSMDYWGQGTQVTVSS,high polyreactivity
11,QVQLVESGGGLVQAGGSLRLSCAASGRIFSVNAMGWYRQAPGKERELVASISWSGGSTYYADSVKGRFTISRDNAKNTVYLQMNSLKPEDTAVYYCNARIESYWLDFDYWGQGTQVTVSS,low polyreactivity
12,QVQLVESGGGLVQAGGSLRLSCAASGRIFSVNAMVWYRPAPGKERELVAAITGSGTITYYADSVKGRFTISRDNAKNTVYLQMSSLKPEDTAVYYCAARPVLRYYAGYYYWGQGTQVTVSS,high polyreactivity
13,QVQLVESGGGLVQAGGSLRLSCAASGRIFSVYTMGWYRQAPGKEREFVASITGSAGSTYYADSVKGRFTISRDNAKNTVYLQMNSLKPEDTAVYYCAKRITAWYTYYGYWGQGTQVTVSS,low polyreactivity
14,QVQLVESGGGLVQAGGSLRLSCAASGRIFSVYTMGWYRQAPGKERELVATISSGGRTNYADSVKGRFTISRDNAKNTVYLQMNSLKPEDTAVYYCAAVPYGFVGYDDYWGQGTQVTVSS,low polyreactivity
15,QVQLVESGGGLVQAGGSLRLSCAASGRIFSVYTMRWYRQAPGKERELVATISSGGRTNYADSVKGRFTISRDNAKNTVYLQMNSLKPEDTAVYYCAADWVYPPGLKDSVHFGEYDYWGQGTQVTVSS,low polyreactivity
16,QVQLVESGGGLVQAGGSLRLSCAASGRIFSWNAMGWYRQAPGKERELVAAITIGGGTYYADSVKGRFTISRDNAKNTVYLQMNSLKPEDTAVYYCNAYRRKLWYPTGMYWGQGTQVTVSS,high polyreactivity
